We go through three proteins from patent US7749976.

Marks after values point to notes of the source that are not given here.

Data set [1] concerns the target MyBP Ser(P)/Tyr(P).
For data set [2], the target named is Casein Ser(P).
Data set [3] has as its target MyBP Tyr(P).

MyBP Ser(P)/Tyr(P), sequence (P02686 whole entry): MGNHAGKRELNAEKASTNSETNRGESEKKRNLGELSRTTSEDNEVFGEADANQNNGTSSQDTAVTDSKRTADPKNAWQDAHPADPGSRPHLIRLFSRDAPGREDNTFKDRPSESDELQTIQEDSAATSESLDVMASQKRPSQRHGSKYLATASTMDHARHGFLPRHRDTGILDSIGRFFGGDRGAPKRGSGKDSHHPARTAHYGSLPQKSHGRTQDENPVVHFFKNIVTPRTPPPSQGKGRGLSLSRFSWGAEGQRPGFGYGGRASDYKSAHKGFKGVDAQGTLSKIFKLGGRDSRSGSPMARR
MyBP Tyr(P), sequence (P02686 whole entry): as above

B1: GST-PLIP (recombinant murine PLIP fusion protein with N-terminal GST and 6-His tags) (protein)
chain: MAASAWLEAGLARVLFYPTLLYTVFRGRVRGPAHRDWYHRIDHTVLLGALPLKNMTRRLVLDENVRGVITMNEEYETRFLCNTSKEWKKAGVEQLRLSTVDMTGVPTLANLHKGVQFALKYQALGQCVYVHCKAGRSRSATMVAAYLIQVHNWSPEEAIEAIAKIRSHISIRPSQLEVLKEFHKEITARAAKN
As to B1, the “Phosphatase activity (mole of phosphate released/min/mol of enzyme)” value in data set [1] and in data set [2] was ~0.0^b throughout. For the same protein, the Phosphatase activity (mole of phosphate released/min/mol of enzyme) (mol/(min mol)) in data set [2] was found to be 0.2; in data set [3] it was 0.1.

B2: VHR (protein)
chain: MSGSFELSVQDLNDLLSDGSGCYSLPSQPCNEVTPRIYVGNASVAQDIPKLQKLGITHVLNAAEGRSFMHVNTNANFYKDSGITYLGIKANDTQEFNLSAYFERAADFIDQALAQKNGRVLVHCREGYSRSPTLVIAYLMMRQKMDVKSALSIVRQNREIGPNDGFLAQLCQLNDRLAKEGKLKP
With B2, the “Phosphatase activity (mole of phosphate released/min/mol of enzyme)” value in data set [1] and in data set [2] was ~0.0^b throughout. Besides, the Phosphatase activity (mole of phosphate released/min/mol of enzyme) (mol/(min mol)) in data set [2] is 1.8; in data set [3], 0.5.

B3: TC-PTP (protein)
chain: MPTTIEREFEELDTQRRWQPLYLEIRNESHDYPHRVAKFPENRNRNRYRDVSPYDHSRVKLQNAENDYINASLVDIEEAQRSYILTQGPLPNTCCHFWLMVWQQKTKAVVMLNRIVEKESVKCAQYWPTDDQEMLFKETGFSVKLLSEDVKSYYTVHLLQLENINSGETRTISHFHYTTWPDFGVPESPASFLNFLFKVRESGSLNPDHGPAVIHCSAGIGRSGTFSLVDTCLVLMEKGDDINIKQVLLNMRKYRMGLIQTPDQLRFSYMAIIEGAKCIKGDSSIQKRWKELSKEDLSPAFDHSPNKIMTEKYN
With B3, the “Phosphatase activity (mole of phosphate released/min/mol of enzyme)” value in data set [1] and in data set [2] was ~0.0^b throughout. Further, the Phosphatase activity (mole of phosphate released/min/mol of enzyme) (mol/(min mol)) is 1440 in data set [2] and 195 in data set [3].
